Data taken from paper PMC3680380, “Functional Characterization of the Cardiac Ryanodine Receptor Pore-Forming Region” (PLoS ONE, 2013).

Target: the molecule itself
Experiment: SEC; analytical gel filtration, HiLoad 16/60 Superdex 200, 50 mM Tris, 150 mM KCl, pH 8.0, 0.1% LDAO; calibrated with soluble protein standards (B-amylase, carbonic anhydrase, cytochrome c); elution at 72 ml against 71 ml expected for a tetramer

B1: human cardiac ryanodine receptor (RyR2) pore-forming region (domain or fragment, UniProt Q92736 4758-4967, looked up)
chain: SSVTHNGKQLVLTVGLLAVVVYLYTVVAFNFFRKFYNKSEDGDTPDMKCDDMLTCYMFHMYVGVRAGGGIGDEIEDPAGDEYEIYRIIFDITFFFFVIVILLAIIQGLIIDAFGELRDQQEQVKEDMETKCFICGIGNDYFDTVPHGFETHTLQEHNLANYLFFLMYLINKDETEHTGQESYVWKMYQERCWEFFPAGDCFRKQYEDQLN
notes: Cardiac ryanodine receptor RyR2, human, pore-forming region, residues 4758-4967 (printed as 209 residues), up to the natural C-terminus; 27.3 kDa with the tag; also called hRyR2-PFR; RyR2-PFR; source: E. coli Rosetta (DE3) pLysS, pET19b; membranes solubilised in 1% LDAO, purified (Ni-NTA, Superdex 200 gel filtration in 0.1% LDAO); not shown: deca-His, N-terminal, kept
stoichiometry N: 4
